Experimental findings from patent publication US20140147868A1 are described below.

Positions of bridges follow the written chain, without caps; N, C: chain ends. No end group written: not given here.

Experiment [1] deals with bovine serum albumin (bovine) (UniProt P02769). Description: phage ELISA, BSA only, 10^10 phagemid per well. In general terms: ELISA stands for enzyme-linked immunosorbent assay.
In experiment [2] the target is unrelated control antibody. Description: phage ELISA, coated control mAb, 10^9 phagemid per well.
The target of experiment [3] is unrelated control antibody. Description: phage ELISA, coated control mAb, 10^10 phagemid per well.
Experiment [4] addresses bovine serum albumin (bovine) (UniProt P02769). Description: phage ELISA, BSA only, 10^8 phagemid per well.
For experiment [5] the target is unchanged. As to the kind of experiment: phage ELISA, BSA only, 10^9 phagemid per well.
For experiment [6], the target named is unrelated control antibody. As to the kind of experiment: phage ELISA, coated control mAb, 10^8 phagemid per well.

Chain of bovine serum albumin (bovine) (P02769 25-607 limits assumed): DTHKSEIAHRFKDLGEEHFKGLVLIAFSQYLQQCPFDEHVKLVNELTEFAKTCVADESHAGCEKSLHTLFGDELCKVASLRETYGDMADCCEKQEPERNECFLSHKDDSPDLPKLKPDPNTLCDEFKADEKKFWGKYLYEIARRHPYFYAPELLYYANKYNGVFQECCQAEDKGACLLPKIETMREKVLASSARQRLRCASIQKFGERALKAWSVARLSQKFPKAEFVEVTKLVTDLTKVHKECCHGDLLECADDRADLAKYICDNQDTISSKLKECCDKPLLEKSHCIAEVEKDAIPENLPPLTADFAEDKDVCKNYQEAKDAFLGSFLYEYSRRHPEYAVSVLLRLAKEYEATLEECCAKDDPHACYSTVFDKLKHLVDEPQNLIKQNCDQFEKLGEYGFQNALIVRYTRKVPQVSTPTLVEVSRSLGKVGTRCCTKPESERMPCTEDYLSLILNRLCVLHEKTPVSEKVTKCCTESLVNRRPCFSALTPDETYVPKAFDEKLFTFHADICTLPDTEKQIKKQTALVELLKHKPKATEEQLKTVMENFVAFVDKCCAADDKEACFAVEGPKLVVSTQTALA

Turning to CSGLYPWDMFRCS (disulfide 1-12 (inferred); also: displayed on phage (phagemid)) [phagemid CS1-9p (phage-displayed disulfide cyclized 13 mer peptide)], the ELISA (absorbance units) (absorbance units) worked out at 0.221 in experiment [1]; 0.204 in experiment [2]; 0.213 in experiment [3]; 0.216 in experiment [4]; 0.22 in experiment [5]; 0.209 in experiment [6].

B1: phagemid CS1-2p (phage-displayed disulfide cyclized 13 mer peptide) (peptide)
peptide: CSLFYLWDQDRCS
modifications: disulfide 1-12 (inferred); also: displayed on phage (phagemid), coat fusion not given here
For B1, the ELISA (absorbance units) (absorbance units) amounted to 0.327 in experiment [1]; 0.199 in experiment [2]; 0.228 in experiment [3]; 0.264 in experiment [4]; 0.277 in experiment [5]; 0.188 in experiment [6].

B2: phagemid CS1-31p (phage-displayed disulfide cyclized 13 mer peptide) (peptide)
peptide: CSFFYSLCYCWCS
modifications: disulfide (positions not given here); also: four Cys, disulfide pairing not given here
For the molecule B2, the ELISA (absorbance units) (absorbance units) in experiment [1] came to 0.112; in experiment [2], 0.118; in experiment [3], 0.125; in experiment [4] it was 0.109; in experiment [5], 0.114; in experiment [6], 0.116.
CSFRYLWDQDRCS (disulfide 1-12 (inferred); also: displayed on phage (phagemid)) [phagemid CS1-6p (phage-displayed disulfide cyclized 13 mer peptide)]: the ELISA (absorbance units) (absorbance units) was determined as 0.275 in experiment [1]; 0.172 in experiment [2]; 0.203 in experiment [3]; 0.254 in experiment [4]; 0.27 in experiment [5]; 0.173 in experiment [6].
Take CSFRYQWDMFRCS (disulfide 1-12 (inferred); also: displayed on phage (phagemid)) [phagemid CS1-11p (phage-displayed disulfide cyclized 13 mer peptide)]: the ELISA (absorbance units) (absorbance units) in experiment [1] is 0.304; in experiment [2], 0.258; in experiment [3], 0.242; in experiment [4], 0.268; in experiment [5], 0.278; in experiment [6], 0.252.
In the case of CSGLYPWDYFMCS (disulfide 1-12 (inferred); also: displayed on phage (phagemid)) [phagemid CS1-29p (phage-displayed disulfide cyclized 13 mer peptide)], the ELISA (absorbance units) (absorbance units) in experiment [1] was 0.141; in experiment [2], 0.136; in experiment [3] it was 0.148; in experiment [4], 0.127; in experiment [5] it was 0.147; in experiment [6], 0.125.
